These results are taken from article PMC7530888 (Nucleic Acids Research, 2020).

Sequences and labels used below:
B1: GST-tagged MtbXthA (enzyme)
chain: MPDGTIDGGHPQRPASPRLRSPLLRLATWNVNSIRTRLDRVLDWLGRADVDVLAMQETKCPDGQFPALPLFELGYDVAHVGFDQWNGVAIASRVGLDDVRVGFDGQPSWSGKPEVAATTEARALGATCGGIRVWSLYVPNGRALDDPHYTYKLDWLAALRDTAEGWLRDDPAAPIALMGDWNIAPTDDDVWSTEFFAGCTHVSEPERKAFNAIVDAQFTDVVRPFTPGPGVYTYWDYTQLRFPKKQGMRIDFILGSPALAARVMDAQIVREERKGKAPSDHAPVLVDLHAG
B2: BRCT domain of MtbLigA, His-tagged (domain or fragment)
chain: SVPRTLAGLTIVVTGSLTGFSRDDAKEAIVARGGKAAGSVSKKTNYVVAGDSPGSKYDKAVELGVPILDEDGFRRLLADGPASRT

Assay [1] has as its target Full-length His-tagged MtbLigA (M. tuberculosis, UniProt P9WNV1 1-691). As to the kind of experiment: SPR. (In general: Surface plasmon resonance follows binding to a sensor surface in real time, without labels.)
Assay [2] deals with B1. As to the kind of experiment: SPR.
Assay [3] concerns the target B2. As to the kind of experiment: ITC. (Isothermal titration calorimetry measures the heat released or taken up as one component is titrated into another.)

Usually Kd stands for a measure of binding affinity in units of concentration. Higher therefore signals a looser complex. In the case of B1, the Kd in assay [1] came out at 67.7 nM.

B2: the dissociation constant (Kd) in assay [2] was determined as 71.4 nM.

On to DGQPSWSGKP [DGQ peptide (MtbXthA 104-113)], for which, in assay [3], the Kd is 2470 nM.

Consider YDVAHVGFD [YDV peptide (MtbXthA 75-83)], for which the Kd in assay [3] turned out to be 88500 nM.
